# Assay results taken from patent US20040086945A1, “Hairless protein-interacting partner complexes and methods thereto” (The Procter & Gamble Company, priority 2002, published 2004).
# T1: mouse HRt (hairless protein aa 490-1182) (Mus musculus, UniProt Q61645)
# T1 construct: HR cDNA corresponding to the C-terminal half of HR protein (aa residues 490 to 1182, hereinafter HRt); expressed in transfected cells; host or cells: Saccharomyces cerevisiae PJ69-2A transformed with BD-HRt plasmid, mated with Y187 carrying the human brain cDNA library in pACT2
# T1 sequence (Q61645 490-1182): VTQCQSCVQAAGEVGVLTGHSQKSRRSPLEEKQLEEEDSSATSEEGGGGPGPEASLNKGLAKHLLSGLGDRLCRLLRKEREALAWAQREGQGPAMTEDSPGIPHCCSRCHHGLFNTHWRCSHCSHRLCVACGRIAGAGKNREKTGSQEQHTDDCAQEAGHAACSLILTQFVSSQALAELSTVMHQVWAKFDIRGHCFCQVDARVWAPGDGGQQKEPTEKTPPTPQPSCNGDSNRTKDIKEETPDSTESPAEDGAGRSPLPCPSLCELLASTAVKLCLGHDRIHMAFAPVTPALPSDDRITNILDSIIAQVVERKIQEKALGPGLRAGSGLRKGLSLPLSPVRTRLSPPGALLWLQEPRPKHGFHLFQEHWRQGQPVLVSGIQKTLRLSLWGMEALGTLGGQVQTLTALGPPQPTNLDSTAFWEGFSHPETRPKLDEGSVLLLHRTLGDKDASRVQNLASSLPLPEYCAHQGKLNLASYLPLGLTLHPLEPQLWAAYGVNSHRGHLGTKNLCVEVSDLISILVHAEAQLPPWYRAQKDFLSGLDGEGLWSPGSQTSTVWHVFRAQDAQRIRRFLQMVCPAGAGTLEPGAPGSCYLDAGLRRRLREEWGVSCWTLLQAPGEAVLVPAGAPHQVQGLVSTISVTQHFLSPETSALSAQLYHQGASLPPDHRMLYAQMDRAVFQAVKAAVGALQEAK
# Target: T1, mouse HRt (hairless protein aa 490-1182)
# Experiment: Yeast two-hybrid screen of BD-HRt against human brain cDNA library in AD vector, lacZ coloration on QDO-Xgal plates
# Format: cell-based
# Conditions: BD-HRt(mouse) x human brain cDNA library in AD-vector
# From the text: The present example provides for Hairless Protein (HR) interacting partners (HR-IP) using the yeast two-hybrid technology. […] Yeast cells expressing BD-HRt are mated with yeast cells pretransformed with human brain cDNA library in the activation domain (AD) vector.
# Cloning of HRt into GAL4 binding domain (BD) yeast two-hybrid (Y2H) vector: The HRt insert from pET32a-HRt is excised as an Eco RI-Xho I fragment (there is a unique Xho I site just adjacent to HRt insert) and inserted at the Eco RI-Sal I sites of Y2H-BD vector pGBKT7 (Catalog No. K1612-B; a component of Matchmaker two-hybrid System 3 (Catalog No. K1612-1) BD Biosciences Clontech, Palo Alto, Calif.) to obtain pGBKT7-HRt in which HRt is fused in-frame to GAL 4 DNA BD (this plasmid is also designated BD-HRt).
# Pretransformed human brain […] cDNA Library Screen for HRt interaction partners: Pretransformed human brain […] high-complexity GAL4 cDNA library that has already been amplified and introduced into yeast strain Y187 (MATα) is used to screen for HRt interacting proteins. […] The library host strain Y187 provides a third reporter gene (lacZ) for optional quantification of signal strength. The protocol as described in Clontech user manual (PT3183-1) is used. Briefly, the library is mixed with PJ69-2A strain that has been transformed with the BD-HRt plasmid in YPD medium containing adenine hemisulfate (0.004%) and kanamycin (0.005%) and incubated for 20-24 h at 30° C. The next day, the mating mixture is plated on Leu, Trp, His TDO that selects for two-hybrid interactions, and then the positive clones are screened for growth on Leu, Trp, His, Ade QDO, which is a more stringent condition for interaction. Colonies that grew well on QDO are also screened for lacZ expression by streaking on QDO-Xgal plates. Based on a visual assessment of colonies for the intensity of blue color, the clones are classified into high (H), medium (M), low (L) or very low (VL) categories.
# The positive clones are expected to contain an AD-IP (interacting partner) that interacts with BD-HRt. To characterize IP, the sequence of IP is determined and matched to the human genome database. For this purpose, total DNA is isolated from the positive clones and PCR amplified with […] AD LD (long distance)-insert screening amplimers (Catalog No.9103-1; BD Biosciences Clontech, PaloAlto, Calif.). Reaction is conducted in 50 μl volume for 35 cycles using the conditions recommended with the Advantage2 PCR kit (Catalog No. K1910-1; BD Biosciences Clontech, PaloAlto, Calif.).
row,XGAL (rate and intensity of coloration of colonies on Xgal),Molecule
1,M (M = Medium blue in 3-5 days),"Human hypothalamus protein HSMNP1: human HRt interacting partner, GenBank AF220191, SEQ ID NO:30/31 (protein, listed as Homo sapiens) DRRFSRSAIPEQIISSTLSSPSSNAPDPCAKETVLSALKEKKKKRTVEEEDQIFLDGQENKRSCLVDGLTDASSAFKVPRPGPDTLQFTVDVFHFANDSRNMIYITCHLKVTLAEQDPDELNKACSFSKPSNSWFPVEGPADICQCCNKGDCGTPSHSRRQPRVVSQWSTSASRNRRHVTEEADVTVGATDLPGQEW"
2,M (M = Medium blue in 3-5 days),"Human quinone oxidoreductase(NQO2): human HRt interacting partner, GenBank J02888, SEQ ID NO:40/41 (protein, listed as Homo sapiens) PDSNAIRPQLVPHHRTTQQEAGGTMTSATQSARAFSRAPPQTSLWPALPSSLELELLQRQPQQASLHIEVAGPIAQTRETHRELYVFIFLL"
3,L (L = Low blue in 5-7 days),"Human alpha-tubulin: human HRt interacting partner, GenBank AF141348, SEQ ID NO:50 (protein, listed as Homo sapiens) QSLGLLDQNPHLAQELRPQIQELLHSEHLGPSELEAPAPGGSSEDKGGLQPPDSKDADTPMTLPKGSTEQDAASPEKEKMNPLEQYERKVNASVPRGFPFHSSEIQRDELAPAGTGVSREAVSGLLIMGAGGGSLIVLSMLLLRRKKPYGAISHGVVEVDPMLTLEEQQLRELQRHGYENPTYRFLEERP"
4,M (M = Medium blue in 3-5 days),"Human POM-ZP3: human HRt interacting partner, GenBank U10099, SEQ ID NO:36/37 (protein, listed as Homo sapiens) LEQKLALAERIRGHVLSLALQMYGCRVIQKALEFIPSDQQNEMVRELDGHVLKCVKDQNGNHVVQKCIECVQPQSLQFIIDAFKGQVFALSTHP"
5,M (M = Medium blue in 3-5 days),"Human alpha enolase: human HRt interacting partner, GenBank M14328, SEQ ID NO:32/33 (protein, listed as Homo sapiens) DGEPCFSCLYGNGPHPPAPQPSSRFNDAPAADKEPSVVQFCEFVSAPEVSRWAGPIIDVLLDYVGNVQLCSRLKEHIDSFEDWAVIKEKAEPPRPLAHLCRLRVRKAIGKYRIKLLDTLPLPGRLIRYLKYENTQ"
6,L (L = Low blue in 5-7 days),"Human transcription factor Y, gamma: human HRt interacting partner, GenBank BC005003, SEQ ID NO:53/54 (protein, UniProt Q13952 1-458, looked up) Nuclear transcription factor …: MSTEGGFGGTSSSDAQQSLQSFWPRVMEEIRNLTVKDFRVQELPLARIKKIMKLDEDVKMISAEAPVLFAKAAQIFITELTLRAWIHTEDNKRRTLQRNDIAMAITKFDQFDFLIDIVPRDELKPPKRQEEVRQSVTPAEPVQYYFTLAQQPTAVQVQGQQQGQQTTSSTTTIQPGQIIIAQPQQGQTTPVTMQVGEGQQVQIVQAQPQGQAQQAQSGTGQTMQVMQQIITNTGEIQQIPVQLNAGQLQYIRLAQPVSGTQVVQGQIQTLATNAQQGQRNASQGKPRRCLKETLQITQTEVQQGQQQFSQFTDGQRNSVQQARVSELTGEAEPREVKATGNSTPCTSSLPTTHPPSHRAGASCVCCSQPQQSSTSPPPSDALQWVVVEVSGTPNQLETHRELHAPLPGMTSLSPLHPSQQLYQIQQVTMPAGQDLAQPMFIQSANQPSDGQAPQVTGD"
7,M (M = Medium blue in 3-5 days),"Human VPS41: human HRt interacting partner, GenBank U87309, SEQ ID NO:46/47 (protein, UniProt P49754 1-854, looked up) Vacuolar protein …: MAEAEEQETGSLEESTDESEEEESEEEPKLKYERLSNGVTEILQKDAASCMTVHDKFLALGTHYGKVYLLDVQGNITQKFDVSPVKINQISLDESGEHMGVCSEDGKVQVFGLYSGEEFHETFDCPIKIIAVHPHFVRSSCKQFVTGGKKLLLFERSWMNRWKSAVLHEGEGNIRSVKWRGHLIAWANNMGVKIFDIISKQRITNVPRDDISLRPDMYPCSLCWKDNVTLIIGWGTSVKVCSVKERHASEMRDLPSRYVEIVSQFETEFYISGLAPLCDQLVVLSYVKEISEKTEREYCARPRLDIIQPLSETCEEISSDALTVRGFQENECRDYHLEYSEGESLFYIVSPRDVVVAKERDQDDHIDWLLEKKKYEEALMAAEISQKNIKRHKILDIGLAYINHLVERGDYDIAARKCQKILGKNAALWEYEVYKFKEIGQLKAISPYLPRGDPVLKPLIYEMILHEFLESDYEGFATLIREWPGDLYNNSVIVQAVRDHLKKDSQNKTLLKTLAELYTYDKNYGNALEIYLTLRHKDVFQLIHKHNLFSSIKDKIVLLMDFDSEKAVDMLLDNEDKISIKKVVEELEDRPELQHVYLHKLFKRDHHKGQRYHEKQISLYAEYDRPNLLPFLRDSTHCPLEKALEICQQRNFVEETVYLLSRMGNSRSALKMIMEELHDVDKAIEFAKEQDDGELWEDLILYSIDKPPFITGLLNNIGTHVDPILLIHRIKEGMEIPNLRDSLVKILQDYNLQILLREGCKKILVADSLSLLKKMHRTQMKGVLVDEENICESCLSPILPSDAAKPFSVVVFHCRHMFHKECLPMPSMNSAAQFCNICSAKNRGPGSAILEMKK"
8,M (M = Medium blue in 3-5 days),"Human pumilio(PUMH1): human HRt interacting partner, GenBank D43951, SEQ ID NO:44/45 (protein, UniProt Q14671 2-1186, looked up) Pumilio homolog 1: SVACVLKRKAVLWQDSFSPHLKHHPQEPANPNMPVVLTSGTGSQAQPQPAANQALAAGTHSSPVPGSIGVAGRSQDDAMVDYFFQRQHGEQLGGGGSGGGGYNNSKHRWPTGDNIHAEHQVRSMDELNHDFQALALEGRAMGEQLLPGKKFWETDESSKDGPKGIFLGDQWRDSAWGTSDHSVSQPIMVQRRPGQSFHVNSEVNSVLSPRSESGGLGVSMVEYVLSSSPGDSCLRKGGFGPRDADSDENDKGEKKNKGTFDGDKLGDLKEEGDVMDKTNGLPVQNGIDADVKDFSRTPGNCQNSANEVDLLGPNQNGSEGLAQLTSTNGAKPVEDFSNMESQSVPLDPMEHVGMEPLQFDYSGTQVPVDSAAATVGLFDYNSQQQLFQRPNALAVQQLTAAQQQQYALAAAHQPHIGLAPAAFVPNPYIISAAPPGTDPYTAGLAAAATLGPAVVPHQYYGVTPWGVYPASLFQQQAAAAAAATNSANQQTTPQAQQGQQQVLRGGASQRPLTPNQNQQGQQTDPLVAAAAVNSALAFGQGLAAGMPGYPVLAPAAYYDQTGALVVNAGARNGLGAPVRLVAPAPVIISSSAAQAAVAAAAASANGAAGGLAGTTNGPFRPLGTQQPQPQPQQQPNNNLASSSFYGNNSLNSNSQSSSLFSQGSAQPANTSLGFGSSSSLGATLGSALGGFGTAVANSNTGSGSRRDSLTGSSDLYKRTSSSLTPIGHSFYNGLSFSSSPGPVGMPLPSQGPGHSQTPPPSLSSHGSSSSLNLGGLTNGSGRYISAAPGAEAKYRSASSASSLFSPSSTLFSSSRLRYGMSDVMPSGRSRLLEDFRNNRYPNLQLREIAGHIMEFSQDQHGSRFIQLKLERATPAERQLVFNEILQAAYQLMVDVFGNYVIQKFFEFGSLEQKLALAERIRGHVLSLALQMYGCRVIQKALEFIPSDQQNEMVRELDGHVLKCVKDQNGNHVVQKCIECVQPQSLQFIIDAFKGQVFALSTHPYGCRVIQRILEHCLPDQTLPILEELHQHTEQLVQDQYGNYVIQHVLEHGRPEDKSKIVAEIRGNVLVLSQHKFASNVVEKCVTHASRTERAVLIDEVCTMNDGPHSALYTMMKDQYANYVVQKMIDVAEPGQRKIVMHKIRPHIATLRKYTYGKHILAKLEKYYMKNGVDLGPICGPPNGII"
